Test results as given in the supplement of paper PMC11865577.

How the values were obtained:
Assay in all cases: pull-down binding Z-score (relative to library population); higher = stronger binding
Settings in all cases: RNA library: Library-2
[1] = test system: TO-3-N3 (biotin conjugate)
How it was run: (§1)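 Streptavidin beads bearing 100 pmol of a biotin-conjugated small molecule were incubated for 60 min at 25 °C with 1 μg of heat-folded, Cy5- or Cy3-end-labelled RNA library in phosphate/NaCl/KCl buffer. Hot SDS eluted the RNA that stayed bound after three washes, and this RNA was hybridised for 20 h at 55.5 °C to a DNA barcode microarray. Binding was expressed as a Z-score against the library mean and standard deviation, after subtraction of a beads-only signal and trimmed averaging of barcoded replicate probes.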

[2] = test system: TO-3-N3-2 (biotin conjugate)
How it was run: as §1

TO-N3 (biotin conjugate) = test system: TO-N3 (biotin conjugate)
How it was run: as §1

[3] = test system: TO-N3-2 (biotin conjugate)
How it was run: as §1

Sequence	pull-down binding Z-score [1]	pull-down binding Z-score [2]	pull-down binding Z-score (TO-N3 (biotin conjugate))	pull-down binding Z-score [3]
CAACUGAAAUCUAUCAGGCCGGUAGCACACCUUGUAAUGGUGUUGAAGGUUUUAAUUG [SHAPE_invivo_SARS-CoV-2_Motif_433]	-0.552	-0.292	-0.566	0.0571
CAACUUACAAAUUAAAUGUUG	-0.448	-0.152	-0.698	-1.06
CAAGAGAAGUGGGUUUUGUCGUGCCUGGUUUGCCUGGCACGAUAUUACGCACAACUAAUG	-0.455	-0.209	-0.438	-0.297
CAAGGACCUGCCUAAAGAAAUCACUGUUGCUACAUCACGAACGCUUUCUUAUUACAAAUUGGGAGCUUCGCAGCGUGUAGCAGGUGACUCAGGUUUUG [DMSMaPseq_invitro_SARS-CoV-2_Motif_486]	-0.688	-0.309	-0.158	0.921
CAAGGCUAUUGAUGGUGGUGUCACUCGUGACAUAGCAUCUACAGAUACUUG [SHAPE_invivo_SARS-CoV-2_Motif_176]	-0.614	-0.243	-0.424	0.281
CAAGGGUACACACCACUG	0.824	-0.131	0.81	0.0749
CAAUACAUAAGAAAGCUACAUGAUGAGUUAACAGGACACAUGUUAGACAUGUAUUCUGUUAUGCUUACUAAUGAUAACACUUCAAGGUAUUG	-0.424	0.625	-0.411	-0.157
CAAUGUGUGAUAUCAGACAACUACUAUUUGUAGUUGAAGUUGUUGAUAAGUACUUUG [DMSMaPseq_invitro_SARS-CoV-2_Motif_268]	-0.462	-0.487	0.105	-0.156
CACAAGGCAGAUGGGCUAUAUAAACGUUUUCGCUUUUCCGUUUACGAUAUAUAGUCUACUCUUGUG	-0.81	-0.5	-0.787	-0.455
CACAGAAAAGUACUGUG [SHAPE_invivo_SARS-CoV-2_Motif_52]	1.15	0.427	0.891	-0.279
CACAUCAGUAGUCUUACUCUCAGUUUUGCAACAACUCAGAGUAGAAUCAUCAUCUAAAUUGUG [DMSMaPseq_invitro_SARS-CoV-2_Motif_209]	-0.736	-0.352	-0.843	-0.741
CACAUCUAGGUUUCGUCCGGGUGUG [SARS-CoV-2-Conserved-Structured-16_Interval-158-277_Motif_2]	0.468	-0.459	0.254	-0.319
CACAUGAAGGUAAAACAUUUUAUGUUUUACCUAAUGAUG	-0.659	-0.743	-0.73	-0.256
CACCAAGACUACUUACUGGUG [IAV_invivo_PB1_2_Motif_22+IAV_invivo_PB1_2_Motif_22]	-0.338	-0.501	-0.706	-1.37
CACCACUUAACCGAAAUUAUGUCUUUACUGGUUAUCGUGUAACUAAAAACAGUAAAGUACAAAUAGGAGAGUACACCUUUGAAAAAGGUGACUAUGGUG	-0.803	-0.419	-0.623	-0.309
CACCAUCUGGUG [DMSMaPseq_invitro_SARS-CoV-2_Motif_188]	0.319	-0.158	0.0701	-1.15
CACCCGCGAAGAAGCUAUAAGACAUGUACGUGCAUGGAUUGGCUUCGAUGUCGAGGGGUG	0.929	-0.23	0.845	0.0562
CACGUCCAACUCAGUUUGCCUGUUUUACAGGUUCGCGACGUG	0.0988	-0.0582	0.0672	0.192
CACUAAAAAGUGGAAAUACCCACAAGUUAAUG	-0.634	-0.22	-0.552	-0.609
CACUCAAAGGCGGUGCACCAACAAAGGUUACUUUUGGUGAUGACACUGUGAUAGAAGUG [DMSMaPseq_invitro_SARS-CoV-2_Motif_50]	-0.531	-0.205	-0.234	-0.0256
CACUGUACAGUCUAAAAUGUCAGAUGUAAAGUG [DMSMaPseq_invitro_SARS-CoV-2_Motif_208]	-0.25	-0.0983	-0.414	-0.645
CACUUAUCUUAGCCUACUGUAAUAAGACAGUAGGUGAGUUAGGUG	-0.861	-0.273	-1.2	-1.07
CACUUCUUUCUUUGAGAGAAGUG	-0.323	-0.228	-0.669	-1.42

Sequence	pull-down binding Z-score [1]	pull-down binding Z-score [2]	pull-down binding Z-score (TO-N3 (biotin conjugate))	pull-down binding Z-score [3]
CAGACAACACAUUUGUGUCUG	-1.07	-0.67	-1.45	-1.8
CAGACUUUAUGAGUGUCUCUAUAGAAAUAGAGAUGUUGACACAGACUUUGUGAAUGAGUUUUACGCAUAUUUGCGUAAACAUUUCUCAAUGAUGAUACUCUCUG	-0.919	-0.449	-1.21	-1.1
CAGACUUUGUGAAUGAGUUUUACGCAUAUUUGCGUAAACAUUUCUCAAUGAUGAUACUCUCUG	-0.682	-0.222	-0.747	-0.783
CAGAGACUUGAAGAUGUCUUUG [IAV_invivo_M1_M2_7_Motif_2+IAV_invivo_M1_M2_7_Motif_2]	-0.637	-0.362	-0.897	-0.242
CAGAGUACUCAAUGGUCUUUG	-0.33	-0.543	-0.395	-0.606
CAGAGUCACAUGUUGACACUG	0.214	-0.263	-0.0159	-0.894
CAGAGUCGUAUUUGUCUUAUGGGCACAUGGCUUUG [SHAPE_invivo_SARS-CoV-2_Motif_350]	0.361	-0.171	0.131	-0.215
CAGCAAGAACUG [DMSMaPseq_invitro_SARS-CoV-2_Motif_202]	-0.324	-0.578	-0.633	-0.724
CAGGACACGAGUAACUCGUCUAUCUUCUG [SARS-CoV-2-Conserved-Structured-36_Interval-120-237_Motif_2]	0.225	-0.0048	0.324	0.379
CAGGCAAGAAGGAUACUUACCUG [U1snRNP5ss-25]	-0.164	-0.366	-0.353	-0.695
CAGGCAAUAACAGUUACACCGGAAGCCAAUAUGGAUCAAGAAUCCUUUGGUGGUGCAUCGUGUUGUCUG [SHAPE_invivo_SARS-CoV-2_Motif_250]	0.944	0.619	1.2	0.779
CAGGCCACAAAUAGGCGUG	-0.638	-0.502	-0.509	0.278
CAGGCCAUCACAAAUGCCACAGCUUGAGUAAACUGUGCAGCCUG [3-way model-2_DENV2]	-0.433	-0.224	-0.464	-0.0801
CAGGUACAGUAGAUACUUACCUG [U1snRNP5ss-19]	-0.605	-0.722	-0.984	-1.09
CAGGUAUGAAUGAUACUUACCUG [U1snRNP5ss-11]	1.06	0.369	0.898	0.225
CAGGUGACUUUGAUACUUACCUG [U1snRNP5ss-18]	-0.734	-0.615	-0.974	-0.978
CAGGUUUGUGAGAUACUUACCUG [U1snRNP5ss-14]	-0.473	-0.404	-0.661	-0.792
CAGUACAAUUCUGUGAUGCCAUGCGAAAUGCUGGUAUUGUUGGUGUACUG	-0.432	-0.441	-0.499	-0.171
CAGUUGAAACAUCAAAUUCGUUUGAUGUACUG	-0.685	-0.516	-1.04	-1.22
CAGUUUACUCACACCUUUUGCUCGUUGCUGCUG	-0.164	-0.285	-0.0216	0.0199
CAGUUUGGUCCAACUUAUUUGGAUGGAGCUG	-0.686	-0.514	-1	-0.976
CAUAAACGAACUUAUGGAUUUGUUUAUG	-0.474	-0.393	-0.904	-1.25
CAUAGAUUAUGACUGUG [SHAPE_invivo_SARS-CoV-2_Motif_206]	-0.165	-0.373	-0.396	-0.826

Sequence	pull-down binding Z-score [1]	pull-down binding Z-score [2]	pull-down binding Z-score (TO-N3 (biotin conjugate))	pull-down binding Z-score [3]
CAUCAAAACCAAGCAAGAGGUCAUUUAUUGAAGAUCUACUUUUCAACAAAGUGACACUUGCAGAUG [DMSMaPseq_invitro_SARS-CoV-2_Motif_426]	-0.806	-0.0955	-0.92	-0.851
CAUCAACCAUAUGUAGUUGAUG	-0.47	-0.283	-0.872	-1.15
CAUCAUAUGCAGCUUUUGCUACUGCUCAAGAAGCUUAUGAGCAGGCUGUUGCUAAUGGUG	-1.04	-0.315	-0.917	-0.238
CAUCGUUGAUAGUG [SHAPE_invitro_SARS-CoV-2_Motif_152]	0.718	0.263	0.76	0.588
CAUGAAGUGUGAUCAUUGUGGUGAAACUUCAUG	-0.496	-0.154	-0.605	-0.279
CAUGAGCAGUGCUGACUCAACUCAGGCCUAAACUCAUG	-0.197	0.0138	0.27	0.83
CAUGCAAAUUACAUAUUUUGGAGGAAUACAAAUCCAAUUCAGUUGUCUUCCUAUUCUUUAUUUGACAUG	-0.857	-0.152	-1.08	-0.803
CAUGCUGAUUUUGACACAUGGUUUAGCCAGCGUG [DMSMaPseq_invitro_SARS-CoV-2_Motif_160]	-0.604	-0.409	-0.64	-0.276
CAUGGAUUUGUCUUCUACAAUUUGCCUAUG	-0.852	-0.186	-0.967	-0.745
CAUGUCAUGUCUAAACAUACUGACUUUUCAAGUG [SHAPE_invitro_SARS-CoV-2_Motif_169]	-0.283	-0.276	-0.41	-0.539
CAUGUGAUCUGCACCUCUGAAGACAUG	0.111	0.185	0.248	0.33
CAUGUGGUAGUGUUGGUUUUAACAUAGAUUAUGACUGUGUCUCUUUUUGUUACAUGCACCAUAUG	1.54	0.0495	1.48	-0.00779
CAUGUGUUGGUAGCGAUAAUGUUACUGACUUUAAUG	-0.663	-0.614	-0.995	-1.01
CAUGUUUAUCACCCGCGAAGAAGCUAUAAGACAUGUACGUGCAUGGAUUGGCUUCGAUGUCGAGGGGUGUCAUG [DMSMaPseq_invitro_SARS-CoV-2_Motif_326]	-0.699	-0.363	-0.771	-0.0649
CAUUACUUUAUGAUG [SHAPE_invitro_SARS-CoV-2_Motif_468]	0.168	-0.259	-0.055	-1.02
CAUUUGUAGUUUCAACUGGAUACCACUUCAGAGAGCUAGGUGUUGUACAUAAUCAGGAUGUAAACUUACAUAGCUCUAGACUUAGUUUUAAGGAAUUACUUGUG	-0.927	-0.292	-0.109	0.127
CCAAGACAUGUGAUCUGCACCUCUGAAGACAUGCUUAACCCUAAUUAUGAAGAUUUACUCAUUCGUAAGUCUAAUCAUAAUUUCUUGG [DMSMaPseq_invitro_SARS-CoV-2_Multi_33_ComplexLevel_1]	0.403	-0.101	0.332	0.229
CCAAGGAAAUUUUGG	-0.192	-0.382	-0.373	-0.948
CCACAUAGAUCAUCCAAAUCCUAAAGGAUUUUGUGACUUAAAAGG [SHAPE_invivo_SARS-CoV-2_Motif_251]	-0.167	-0.357	-0.169	-0.137
CCACAUUUUCACCGAGGCCACGCGGAGUACGAUCGAGUGUACAGUGAACAAUGCUAGG	-0.147	0.563	0.772	1.34
CCACGCACAUUGCUAACUAAGGGCACACUAGAACCAGAAUAUUUCAAUUCAGUGUGUAGACUUAUGAAAACUAUAGGUCCAGACAUGUUCCUCGGAACUUGUCGG	-0.478	-0.0669	-0.189	0.139
CCACGCCAGGUAGUGG	1.16	0.0319	0.912	-0.539
